Data taken from paper PMC10047360.

B1: LRP6: N1039Q (protein)
parent chain: MGAVLRSLLACSFCVLLRAAPLLLYANRRDLRLVDATNGKENATIVVGGLEDAAAVDFVFSHGLIYWSDVSEEAIKRTEFNKTESVQNVVVSGLLSPDGLACDWLGEKLYWTDSETNRIEVSNLDGSLRKVLFWQELDQPRAIALDPSSGFMYWTDWGEVPKIERAGMDGSSRFIIINSEIYWPNGLTLDYEEQKLYWADAKLNFIHKSNLDGTNRQAVVKGSLPHPFALTLFEDILYWTDWSTHSILACNKYTGEGLREIHSDIFSPMDIHAFSQQRQPNATNPCGIDNGGCSHLCLMSPVKPFYQCACPTGVKLLENGKTCKDGATELLLLARRTDLRRISLDTPDFTDIVLQLEDIRHAIAIDYDPVEGYIYWTDDEVRAIRRSFIDGSGSQFVVTAQIAHPDGIAVDWVARNLYWTDTGTDRIEVTRLNGTMRKILISEDLEEPRAIVLDPMVGYMYWTDWGEIPKIERAALDGSDRVVLVNTSLGWPNGLALDYDEGKIYWGDAKTDKIEVMNTDGTGRRVLVEDKIPHIFGFTLLGDYVYWTDWQRRSIERVHKRSAEREVIIDQLPDLMGLKATNVHRVIGSNPCAEENGGCSHLCLYRPQGLRCACPIGFELISDMKTCIVPEAFLLFSRRADIRRISLETNNNNVAIPLTGVKEASALDFDVTDNRIYWTDISLKTISRAFMNGSALEHVVEFGLDYPEGMAVDWLGKNLYWADTGTNRIEVSKLDGQHRQVLVWKDLDSPRALALDPAEGFMYWTEWGGKPKIDRAAMDGSERTTLVPNVGRANGLTIDYAKRRLYWTDLDTNLIESSNMLGLNREVIADDLPHPFGLTQYQDYIYWTDWSRRSIERANKTSGQNRTIIQGHLDYVMDILVFHSSRQSGWNECASSNGHCSHLCLAVPVGGFVCGCPAHYSLNADNRTCSAPTTFLLFSQKSAINRMVIDEQQSPDIILPIHSLRNVRAIDYDPLDKQLYWIDSRQNMIRKAQEDGSQGFTVVVSSVPSQNLEIQPYDLSIDIYSRYIYWTCEATNVINVTRLDGRSVGVVLKGEQDRPRAVVVNPEKGYMYFTNLQERSPKIERAALDGTEREVLFFSGLSKPIALALDSRLGKLFWADSDLRRIESSDLSGANRIVLEDSNILQPVGLTVFENWLYWIDKQQQMIEKIDMTGREGRTKVQARIAQLSDIHAVKELNLQEYRQHPCAQDNGGCSHICLVKGDGTTRCSCPMHLVLLQDELSCGEPPTCSPQQFTCFTGEIDCIPVAWRCDGFTECEDHSDELNCPVCSESQFQCASGQCIDGALRCNGDANCQDKSDEKNCEVLCLIDQFRCANGQCIGKHKKCDHNVDCSDKSDELDCYPTEEPAPQATNTVGSVIGVIVTIFVSGTVYFICQRMLCPRMKGDGETMTNDYVVHGPASVPLGYVPHPSSLSGSLPGMSRGKSMISSLSIMGGSSGPPYDRAHVTGASSSSSSSTKGTYFPAILNPPPSPATERSHYTMEFGYSSNSPSTHRSYSYRPYSYRHFAPPTTPCSTDVCDSDYAPSRRMTSVATAKGYTSDLNYDSEPVPPPPTPRSQYLSAEENYESCPPSPYTERSYSHHLYPPPPSPCTDSS
B2: LRP6: N81Q (protein)
parent chain: B1 parent chain
B3: LRP6: N692Q (protein)
parent chain: B1 parent chain
B4: LRP6: B3GnT2−/− (protein)
parent chain: B1 parent chain
B5: LRP6: hB3GnT2 co-expression (protein)
parent chain: B1 parent chain
B6: LRP6: N42Q (protein)
parent chain: B1 parent chain
B7: LRP6: N281Q (protein)
parent chain: B1 parent chain
B8: LRP6: N433Q (protein)
parent chain: B1 parent chain
B9: LRP6: N486Q (protein)
parent chain: B1 parent chain
B10: LRP6: N859Q (protein)
parent chain: B1 parent chain
B11: LRP6: N865Q (protein)
parent chain: B1 parent chain
B12: LRP6: N926Q (protein)
parent chain: B1 parent chain

Key:
[1] = Western blot, mature upper band, B3GnT2-/- HEK293T; settings: glycan lost; control: wild-type LRP6
[2] = Western blot of overexpressed LRP6; settings: glycan changed form; control: wild-type HEK293T cells
[3] = cell-surface HiBiT/LgBiT luminescence to mCherry ratio; settings: glycan changed form; control: HiBiT-LRP6-mCherry alone

Protein | localisation_or_trafficking [1] | also measured
B1 | no change | –
B2 | abolishes | –
B3 | abolishes | –
B4 | – | expression_or_secretion [2]: increases
B5 | – | localisation_or_trafficking, fold_change [3]: increases
B6 | no change | –
B7 | no change | –
B8 | no change | –
B9 | no change | –
B10 | no change | –
B11 | no change | –
B12 | no change | –
